Assay results taken from PMC3901395, “Multivalent interactions of the SUMO-interaction motifs in RING finger protein 4 determine the specificity for chains of the SUMO” (Biochemical Journal, 2013).

Key:
Test in all cases: ITC (calorimetric titration)
Settings in all cases: chain shown with the change
[1] = molecular target: linear di-SUMO2 (2×SUMO2-ΔN11), P61956
[2] = molecular target: linear tetra-SUMO2 (4×SUMO2-ΔN11), P61956
linear tri-SUMO, P61956 = molecular target: linear tri-SUMO, P61956
Chain of linear tri-SUMO, P61956 (P61956 other isoform, or with tags, fused parts or gaps): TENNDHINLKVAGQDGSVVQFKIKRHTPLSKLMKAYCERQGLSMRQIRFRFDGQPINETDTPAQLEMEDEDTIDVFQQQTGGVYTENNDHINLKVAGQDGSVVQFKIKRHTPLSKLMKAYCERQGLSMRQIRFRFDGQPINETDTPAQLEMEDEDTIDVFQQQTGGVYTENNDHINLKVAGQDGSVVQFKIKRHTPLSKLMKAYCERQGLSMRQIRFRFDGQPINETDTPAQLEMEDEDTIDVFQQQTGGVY

Chain of linear di-SUMO2 (2×SUMO2-ΔN11), P61956 (P61956 other isoform, or with tags, fused parts or gaps mutant): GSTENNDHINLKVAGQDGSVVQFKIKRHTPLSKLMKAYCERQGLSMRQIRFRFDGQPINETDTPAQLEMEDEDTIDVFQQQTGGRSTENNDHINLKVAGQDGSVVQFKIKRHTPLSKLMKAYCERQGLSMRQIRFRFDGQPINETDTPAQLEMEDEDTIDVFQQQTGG
Chain of linear tetra-SUMO2 (4×SUMO2-ΔN11), P61956 (P61956 other isoform, or with tags, fused parts or gaps mutant): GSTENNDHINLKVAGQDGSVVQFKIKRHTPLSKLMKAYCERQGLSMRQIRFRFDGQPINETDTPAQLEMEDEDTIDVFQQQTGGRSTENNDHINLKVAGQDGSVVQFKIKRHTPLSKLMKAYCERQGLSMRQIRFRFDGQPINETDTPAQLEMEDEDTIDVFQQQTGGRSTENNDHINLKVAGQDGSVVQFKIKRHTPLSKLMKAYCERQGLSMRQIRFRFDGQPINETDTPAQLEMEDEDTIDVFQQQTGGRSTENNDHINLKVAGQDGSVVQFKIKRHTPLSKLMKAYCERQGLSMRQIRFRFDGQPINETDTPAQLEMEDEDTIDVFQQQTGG

Row | Kd [1] [µM] | Kd [2] [µM] | Kd (linear tri-SUMO, P61956) [µM] | Binder
1 | 69 | 22 | – | RNF4 1–125 (RNF4-SIM domain, wt), P78317 SIM3/4mut (protein) MSTRKRRGGAINSRQAQKRTREATSTPEISLEAEPIELVETAGDEIVDLTCESLEPVVAAAAHNDSAAAADERRRPRRNARRLPQDHADSCVVSSDDEELSRDRDVYVTTHTPRNARDEGATGLR
2 | 110 | 48 | – | RNF4 1–125 (RNF4-SIM domain, wt), P78317 SIM2/3mut (protein) MSTRKRRGGAINSRQAQKRTREATSTPEISLEAEPIELVETAGDEIAAAACESLEPVVAAAAHNDSVVIVDERRRPRRNARRLPQDHADSCVVSSDDEELSRDRDVYVTTHTPRNARDEGATGLR
3 | 91 | 2.2 | 29 | RNF4 1–125 (RNF4-SIM domain, wt), P78317 SIM3mut (protein) MSTRKRRGGAINSRQAQKRTREATSTPEISLEAEPIELVETAGDEIVDLTCESLEPVVAAAAHNDSVVIVDERRRPRRNARRLPQDHADSCVVSSDDEELSRDRDVYVTTHTPRNARDEGATGLR
4 | 52 | 2.4 | – | RNF4 1–125 (RNF4-SIM domain, wt), P78317 SIM1/3mut (protein) MSTRKRRGGAINSRQAQKRTREATSTPEISLEAEPAAAAETAGDEIVDLTCESLEPVVAAAAHNDSVVIVDERRRPRRNARRLPQDHADSCVVSSDDEELSRDRDVYVTTHTPRNARDEGATGLR
5 | 69 | 9.4 | – | RNF4 1–125 (RNF4-SIM domain, wt), P78317 SIM2/4mut (protein) MSTRKRRGGAINSRQAQKRTREATSTPEISLEAEPIELVETAGDEIAAAACESLEPVVVDLTHNDSAAAADERRRPRRNARRLPQDHADSCVVSSDDEELSRDRDVYVTTHTPRNARDEGATGLR
6 | – | 1.3 | – | RNF4 1–125 (RNF4-SIM domain, wt), P78317 SIM1/4mut (protein) MSTRKRRGGAINSRQAQKRTREATSTPEISLEAEPAAAAETAGDEIVDLTCESLEPVVVDLTHNDSAAAADERRRPRRNARRLPQDHADSCVVSSDDEELSRDRDVYVTTHTPRNARDEGATGLR
7 | – | 2.8 | 20 | RNF4 1–125 (RNF4-SIM domain, wt), P78317 SIM4mut (protein) MSTRKRRGGAINSRQAQKRTREATSTPEISLEAEPIELVETAGDEIVDLTCESLEPVVVDLTHNDSAAAADERRRPRRNARRLPQDHADSCVVSSDDEELSRDRDVYVTTHTPRNARDEGATGLR
8 | 118 | 2.1 | 25 | RNF4 1–125 (RNF4-SIM domain, wt), P78317 SIM2mut (protein) MSTRKRRGGAINSRQAQKRTREATSTPEISLEAEPIELVETAGDEIAAAACESLEPVVVDLTHNDSVVIVDERRRPRRNARRLPQDHADSCVVSSDDEELSRDRDVYVTTHTPRNARDEGATGLR
9 | 56 | – | – | RNF4 1–125 (RNF4-SIM domain, wt), P78317 SIM1/2mut (protein) MSTRKRRGGAINSRQAQKRTREATSTPEISLEAEPAAAAETAGDEIAAAACESLEPVVVDLTHNDSVVIVDERRRPRRNARRLPQDHADSCVVSSDDEELSRDRDVYVTTHTPRNARDEGATGLR
